From the Human Domainome abundance scans (Beltran et al. 2025)

B1: E3 ubiquitin-protein ligase TRIM36, residues 208 to 252; numbered along this chain, Q9NQ86 (parent)
chain: KILMCPEHETERINMYCELCRRPVCHLCKLGGNHANHRVTTMSSA

Variants of: B1
Experiment: abundance fitness (aPCA) (normalised: wild type 0, dead -1); higher = more abundant; growth selection in yeast, the domain comes from the species named
Conditions: Homo sapiens

Abundance fitness, by site and new letter:
E11: L -0.196 | Q -0.079 | M -0.322 | G -0.047 | Y 0.082 | A -0.376
Y16: D -0.105 | K -0.16 | Q -0.306 | F -0.046
L27: S -0.003 | F -0.182 | P -0.355 | N 0.005 | Y -0.222 | Q 0.019 | G -0.141 | W -0.223
L3: N -0.013 | G -0.016 | D 0.07 | A -0.001 | V -0.037 | S -0.007 | Y -0.008 | I 0.061 | H -0.131
H26: G 0.049 | M -0.237 | C 0.01 | W -0.324 | Q 0.045 | P 0.021 | T -0.226 | K -0.384
C5: N -0.84 | E -0.655 | H -0.873 | A -0.82 | L -0.929 | T -0.703 | V -0.907 | Q -0.996 | M -1.02
T10: D -0.132 | F -0.337 | N -0.282 | H -0.039 | C -0.06 | K 0.041 | S -0.078 | E -0.049 | Q 0.021 | L -0.142 | P -0.015 | W -0.273
L19: K 0.052 | P 0.029 | G 0.068 | C 0.137 | Q 0.004 | W -0.088 | R 0.076 | V 0.039 | F -0.287 | H 0.004
R38: M 0.008 | G 0.108 | K -0.006 | A 0.021 | D 0.05 | T 0.075 | W 0 | Y -0.005 | S 0.018
P23: S -0.058 | M -0.189 | G 0.006 | I -0.373 | H -0.113 | A -0.064 | D 0.037 | R -0.148
